Measured values as given in EP4703474A1, “ANTI-LRRC15 ANTIBODY” (priority 2023, dated 2024).

Key:
[1] = system: Esophageal carcinoma cell line EC-GI-10; assay: In vivo antitumor effect, EC-GI-10 subcutaneous transplant model; details: 0.4 mg/kg, tail vein, on Day 35, female NSG mice
Protocol: (§1) The antitumor effects of the antibody-drug conjugates were evaluated by using animal models in which cells of a human tumor cell line had been transplanted into immunodeficient mice, or cells of a mouse tumor cell line had been transplanted into immunocompetent mice. 4 to 6 Week-old SCID mice (CB17/Icr-Prkdc[scid]/CrlCrlj, Jackson Laboratory Japan, Inc.), NSG mice (NOD.Cg-Prkdcscid Il2rgtm1Wjl/SzJ, Jackson Laboratory Japan, Inc.), or B6J mice (C57BL/6J, Jackson Laboratory Japan, Inc.) were habituated for 3 days or more under SPF conditions before experimental use. The mice were fed with sterilized solid feed and given sterilized tap water. The major and minor diameters of the transplanted tumors were measured twice a week with an electronic digital caliper (Mitutoyo Corporation), and the estimated tumor volume was calculated using the following formula. Estimated tumor volume (mm^3) = 1/2 × major diameter (mm) × [minor diameter (mm)]^2 All antibody-drug conjugates were diluted with ABS and administered into the tail vein at doses shown in each Example. In addition, ABS (vehicle) or control hIgG-PBD prepared in Reference Example 4 was administered as the control group, in a similar manner. 5 to 6 Mice were used per group in the experiment. To analyze the LRRC15 expression in mouse tumor models, immunohistochemical staining of LRRC15 was performed. […]

[2] = system: Head and neck carcinoma cell line Detroit 562; assay: In vivo antitumor effect, Detroit 562 subcutaneous transplant model; details: 0.4 mg/kg, tail vein, on Day 10, female SCID mice
Protocol: as §1

B1: H02L01-V1-PBD (conjugate)
heavy: EVQLVESGGGLVQPGGSLRLSCAASGFTFRDYYMAWVRQAPGKGLEWVSSIGFDESRTYYADSVKGRFTISRDDSKNTLYLQMNSLRAEDTAVYYCARHGVSKYSGDNWFAYWGQGTLVTVSSASTKGPSVFPLAPSSKSTSGGTAALGCLVKDYFPEPVTVSWNSGALTSGVHTFPAVLQSSGLYSLSSVVTVPSSSLGTQTYICNVNHKPSNTKVDKKVEPKSCDKTHTCPPCPAPEAAGGPSVFLFPPKPKDTLMISRTPEVTCVVVDVSHEDPEVKFNWYVDGVEVHNAKTKPREEQYNSTYRVVSVLTVLHQDWLNGKEYKCKVSNKALAAPIEKTISKAKGQPREPQVYTLPPSREEMTKNQVSLTCLVKGFYPSDIAVEWESNGQPENNYKTTPPVLDSDGSFFLYSKLTVDKSRWQQGNVFSCSVMHEALHNHYTQKSLSLSPGK
light: DIQMTQSPSSLSASVGDRVTITCKSSQGLLYSGDQKNYLAWYQQKPGKAPKLLIYWASTRQSGVPSRFSGSGSGTDFTLTISSLQPEDFATYYCQQYYDPPYTFGQGTKVEIKRTVAAPSVFIFPPSDEQLKSGTASVVCLLNNFYPREAKVQWKVDNALQSGNSQESVTEQDSKDSTYSLSSTLTLSKADYEKHKVYACEVTHQGLSSPVTKSFNRGEC
Q: With B1 as the molecule, how does the “antitumor effect (estimated tumor volume)” value [1] read?
A: antitumor activity higher than that of the vehicle and control hIgG-PBD

Q: What about the “antitumor effect (estimated tumor volume)” value [2] of the same molecule?
A: antitumor activity higher than that of the vehicle and control hIgG-PBD
